Measurements from patent US7572574B2, “Method of measuring neprilysin activity” (Riken, priority 2002, dated 2009).

Biological target: T1, neprilysin (Mus musculus, UniProt Q61391)
T1 construct: endogenous in cells; host or cells: mouse fetal cerebral cortex and hippocampus primary cultured nerve cells, paraformaldehyde-fixed
T1 sequence (Q61391 1-750): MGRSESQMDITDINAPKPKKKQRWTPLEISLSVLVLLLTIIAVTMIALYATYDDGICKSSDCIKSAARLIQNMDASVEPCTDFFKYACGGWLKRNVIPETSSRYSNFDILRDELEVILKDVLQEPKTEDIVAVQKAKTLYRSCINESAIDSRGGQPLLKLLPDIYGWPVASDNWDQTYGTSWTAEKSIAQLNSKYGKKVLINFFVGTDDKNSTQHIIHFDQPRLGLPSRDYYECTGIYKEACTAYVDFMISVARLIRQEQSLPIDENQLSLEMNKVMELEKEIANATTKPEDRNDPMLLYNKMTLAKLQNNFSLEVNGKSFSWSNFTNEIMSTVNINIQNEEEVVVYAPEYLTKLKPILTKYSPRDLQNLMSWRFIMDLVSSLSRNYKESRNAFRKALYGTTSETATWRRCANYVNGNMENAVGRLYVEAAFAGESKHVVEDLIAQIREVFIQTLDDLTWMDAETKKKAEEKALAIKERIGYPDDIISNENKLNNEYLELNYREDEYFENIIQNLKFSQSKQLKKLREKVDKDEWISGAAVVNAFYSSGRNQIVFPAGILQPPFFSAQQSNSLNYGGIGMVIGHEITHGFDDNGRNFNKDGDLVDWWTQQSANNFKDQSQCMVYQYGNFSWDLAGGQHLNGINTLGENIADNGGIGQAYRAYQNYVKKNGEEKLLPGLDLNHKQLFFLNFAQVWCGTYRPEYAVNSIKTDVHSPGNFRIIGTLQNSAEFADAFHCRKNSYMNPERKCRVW
Assay: Neprilysin activity staining in mouse primary cultured nerve cells (fluorescent substrate, confocal microscopy)
Type: cell-based
Conditions: for action against the neprilysin activity or its gene expression: general statement in the description
Method: Nerve cells were prepared from the mouse fetal cerebral cortex and hippocampus and seeded on a poly-L-coated chamber slide (8 chambers, IWAKI 4730-040) at a density of 1×10^5 cells/chamber, followed by incubation for 7 days. After completion of the incubation, the cells were washed with TBS (pH 7.4) and fixed for 12.5 minutes at 20° C. with a paraformaldehyde solution (1.5% paraformaldehyde/50 mM phosphate buffer, pH 6.8). After the cells were washed twice with TBS, 0.2 ml of substrate solution (glutaryl-alanyl-alanyl-phenylalanyl-4-methoxy-2-naphthylamide, Sigma G3769, fmal concentration: 0.5 mM; 0.05 M Tris-HCI buffer, pH 7.4 (pH was adjusted to 7.4 at 4° C.)) was added to the cells, followed by reacting at 4° C. for 48 hours. After completion of the reaction, 25 μl of the solution mixture of aminopeptidase (Sigma L-5006, final concentration: 20.4 μg/ml) and phosphoramidone (Peptide Inst. 4082, final concentration: 10 μM) and 25 μl of nitrosalicylaldehyde solution (6 mM) were further added thereto sequentially. The mixture was reacted at 37° C. for 30 minutes. The reaction was completed by washing the cells twice with TBS. Using argon laser and a filter for rhodamine, positive stained images were observed under a confocal laser scanning microscope (FIG. 1). When the substrate is degraded by neprilysin, an insoluble fluorescent reaction product is formed so that the sites where neprilysin is present are visualized in yellow.
Nerve cells were prepared from the mouse fetal cerebral cortex and hippocampus, followed by incubation as in EXAMPLE 1. On day 7 of the incubation, somatostatin (somatostatin 14 and 28, final concentration: 1 μM) was added to the cells, followed by incubation for further 24 hours. […] To investigate in further detail, these stained images were quantified by image analysis software (Nippon Roper Co., Ltd., MetaVue) and examined.

action against the neprilysin activity or its gene expression	neprilysin activity in the nerve cells compared to control added with no peptide (mouse fetal cerebral cortex and hippocampus primary nerve cells, peptide final concentration 1 μM, 24 hours, stained images observed)	Substance
inhibitorily acts	markedly decreased	PACAP: pituitary adenylate cyclase-activating polypeptide, publicly known neuropeptide
inhibitorily acts		VIP: vasoactive intestinal peptide, publicly known neuropeptide
